Legend:
Assay in all cases: SEC
[1] = target: His6 tagged recombinant IN(D256R/R262A/R263A) (HIV-1 (NL4-3))
[2] = target: His6 tagged recombinant IN(R269A/K273A/D256N/D270N) (HIV-1 (NL4-3))
[3] = target: His6 tagged recombinant IN(R269A/K273A/D256R) (HIV-1 (NL4-3))

“His6 tagged recombinant IN(D256R/R262A/R263A) (enzyme)” was tested, and the stoichiometry N [1] was 4.
With “His6 tagged recombinant IN(R269A/K273A/D256N/D270N) (enzyme)” the stoichiometry N [2] was 4.
In the case of “His6 tagged recombinant IN(R269A/K273A/D256R) (enzyme)”, the stoichiometry N [3] is reported as 4.

Reference: article PMC9601147
